Values of other authors in article PMC12026706.
pKd: −log10 of the molar value.

Assays:
Assay in all cases: BIAcore SPR
[1] = biological target: IL-6R (Homo sapiens) (UniProt P08887)
[2] = biological target: MD2 (Homo sapiens) (UniProt Q9Y6Y9)
[3] = biological target: TLR4 (Homo sapiens) (UniProt O00206)
[4] = biological target: TLR4/MD2 complex (Homo sapiens) (UniProt O00206)
[5] = biological target: TREM-1 (Homo sapiens) (UniProt Q9NP99)
TREM-1 (Homo sapiens), sequence (Q9NP99 21-234): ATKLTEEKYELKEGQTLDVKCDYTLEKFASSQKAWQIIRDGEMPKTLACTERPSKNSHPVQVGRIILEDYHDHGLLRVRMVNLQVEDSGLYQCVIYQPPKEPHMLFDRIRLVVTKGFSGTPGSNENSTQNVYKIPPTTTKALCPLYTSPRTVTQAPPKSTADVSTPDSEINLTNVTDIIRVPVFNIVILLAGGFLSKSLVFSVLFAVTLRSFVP

eCIRP, sequence (Q14011 whole entry): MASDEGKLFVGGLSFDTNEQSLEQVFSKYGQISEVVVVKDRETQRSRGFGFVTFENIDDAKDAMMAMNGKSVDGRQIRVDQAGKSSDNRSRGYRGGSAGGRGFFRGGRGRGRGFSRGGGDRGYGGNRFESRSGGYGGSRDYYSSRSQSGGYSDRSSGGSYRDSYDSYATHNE
MD2 (Homo sapiens), sequence (Q9Y6Y9 19-160): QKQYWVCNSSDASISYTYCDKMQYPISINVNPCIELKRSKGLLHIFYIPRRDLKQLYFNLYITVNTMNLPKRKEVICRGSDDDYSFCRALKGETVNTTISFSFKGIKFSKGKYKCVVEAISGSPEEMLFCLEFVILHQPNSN
IL-6R (Homo sapiens), sequence (P08887 20-355): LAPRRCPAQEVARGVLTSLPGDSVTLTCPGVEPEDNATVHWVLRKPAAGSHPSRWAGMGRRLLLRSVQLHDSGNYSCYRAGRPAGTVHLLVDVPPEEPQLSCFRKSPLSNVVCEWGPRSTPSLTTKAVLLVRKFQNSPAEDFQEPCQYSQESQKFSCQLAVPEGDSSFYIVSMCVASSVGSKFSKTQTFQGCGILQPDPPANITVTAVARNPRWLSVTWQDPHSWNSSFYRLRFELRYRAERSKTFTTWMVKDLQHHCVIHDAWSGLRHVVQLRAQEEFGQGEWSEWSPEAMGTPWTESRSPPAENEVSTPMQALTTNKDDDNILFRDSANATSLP
TLR4 (Homo sapiens), sequence (O00206 24-839): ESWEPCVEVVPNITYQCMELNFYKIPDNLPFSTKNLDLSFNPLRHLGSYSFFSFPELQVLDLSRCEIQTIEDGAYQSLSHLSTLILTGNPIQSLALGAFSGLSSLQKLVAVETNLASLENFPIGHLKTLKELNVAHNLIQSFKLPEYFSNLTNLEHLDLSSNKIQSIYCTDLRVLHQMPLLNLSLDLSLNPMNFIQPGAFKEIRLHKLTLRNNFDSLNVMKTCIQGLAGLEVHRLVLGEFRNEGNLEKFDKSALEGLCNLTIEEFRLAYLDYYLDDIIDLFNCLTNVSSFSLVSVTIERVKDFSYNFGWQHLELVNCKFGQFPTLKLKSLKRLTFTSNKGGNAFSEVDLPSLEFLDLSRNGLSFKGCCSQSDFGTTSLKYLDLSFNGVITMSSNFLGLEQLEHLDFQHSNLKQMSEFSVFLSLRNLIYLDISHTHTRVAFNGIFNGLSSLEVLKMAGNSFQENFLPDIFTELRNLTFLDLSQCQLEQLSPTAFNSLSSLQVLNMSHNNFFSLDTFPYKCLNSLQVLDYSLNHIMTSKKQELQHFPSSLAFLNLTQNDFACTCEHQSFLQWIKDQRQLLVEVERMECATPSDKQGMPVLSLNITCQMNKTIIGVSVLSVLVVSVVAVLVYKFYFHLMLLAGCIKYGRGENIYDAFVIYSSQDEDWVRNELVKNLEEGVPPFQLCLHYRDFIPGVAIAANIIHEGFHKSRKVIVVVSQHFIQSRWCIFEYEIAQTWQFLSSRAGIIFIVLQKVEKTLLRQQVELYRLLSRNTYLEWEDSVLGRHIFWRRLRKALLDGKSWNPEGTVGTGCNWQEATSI
TLR4/MD2 complex (Homo sapiens), sequence (O00206 24-839, chain 1 of 2): as the sequence (O00206 24-839) above
TLR4/MD2 complex (Homo sapiens), sequence (Q9Y6Y9 19-160, chain 2 of 2, further chain): as the sequence (Q9Y6Y9 19-160) above

eCIRP (from UniProt Q14011)
pKd [1]: 7.01
pKd [2]: 6.52
pKd [3]: 6.21
pKd [4]: 6.62
pKd [5]: 6.93
